Tests used:
[1] = molecular target: T1, human CDH6 with EC2 removed, on HEK293T cells (HEK293T-hCDH6-EC2 deletion) (human, UniProt P55285 54-790); experiment: FACS, HEK293T-hCDH6-EC2 deletion cells
T1 construct: Signal peptide not removed here
T1 sequence: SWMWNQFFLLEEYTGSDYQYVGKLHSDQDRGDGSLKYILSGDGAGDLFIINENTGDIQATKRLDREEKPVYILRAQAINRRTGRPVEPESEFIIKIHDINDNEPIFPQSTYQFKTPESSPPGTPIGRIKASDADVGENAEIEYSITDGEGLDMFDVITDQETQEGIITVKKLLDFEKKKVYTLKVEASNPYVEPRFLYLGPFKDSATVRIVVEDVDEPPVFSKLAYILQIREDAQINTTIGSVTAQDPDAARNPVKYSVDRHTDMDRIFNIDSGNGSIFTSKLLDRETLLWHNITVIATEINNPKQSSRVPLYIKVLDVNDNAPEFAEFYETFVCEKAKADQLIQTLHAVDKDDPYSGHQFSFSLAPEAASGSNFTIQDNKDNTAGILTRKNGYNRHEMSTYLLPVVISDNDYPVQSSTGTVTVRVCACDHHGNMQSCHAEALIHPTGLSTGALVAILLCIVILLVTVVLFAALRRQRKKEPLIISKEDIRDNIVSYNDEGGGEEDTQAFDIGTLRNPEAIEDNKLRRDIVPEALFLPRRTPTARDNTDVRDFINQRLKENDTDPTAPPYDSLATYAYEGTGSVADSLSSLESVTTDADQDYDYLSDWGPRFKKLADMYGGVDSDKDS

[2] = molecular target: T2, human CDH6 with EC3 removed, on HEK293T cells (HEK293T-hCDH6-EC3 deletion) (human, UniProt P55285 54-790); experiment: FACS, HEK293T-hCDH6-EC3 deletion cells
T2 construct: Signal peptide not removed here
T2 sequence: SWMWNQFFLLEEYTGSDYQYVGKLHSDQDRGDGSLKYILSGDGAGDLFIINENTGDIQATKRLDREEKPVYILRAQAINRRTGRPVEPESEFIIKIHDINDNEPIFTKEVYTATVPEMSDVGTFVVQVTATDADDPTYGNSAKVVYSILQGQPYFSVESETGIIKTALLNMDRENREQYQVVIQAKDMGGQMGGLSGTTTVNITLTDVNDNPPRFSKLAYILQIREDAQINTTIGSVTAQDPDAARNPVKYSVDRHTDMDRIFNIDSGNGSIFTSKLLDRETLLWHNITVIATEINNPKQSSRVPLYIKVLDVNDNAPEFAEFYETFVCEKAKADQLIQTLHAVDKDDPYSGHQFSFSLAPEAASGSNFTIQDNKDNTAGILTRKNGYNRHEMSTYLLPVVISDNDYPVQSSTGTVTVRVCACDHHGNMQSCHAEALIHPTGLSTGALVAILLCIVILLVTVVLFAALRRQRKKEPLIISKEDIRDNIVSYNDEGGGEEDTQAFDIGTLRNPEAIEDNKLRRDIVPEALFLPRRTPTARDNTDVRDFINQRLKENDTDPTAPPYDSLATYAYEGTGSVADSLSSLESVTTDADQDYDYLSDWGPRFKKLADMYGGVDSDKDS

[3] = molecular target: T3, human CDH6 on tumor cells (OVCAR3 cells, PA-1 cells) (human, UniProt P55285 54-790); experiment: FACS, PA-1 cells
T3 sequence: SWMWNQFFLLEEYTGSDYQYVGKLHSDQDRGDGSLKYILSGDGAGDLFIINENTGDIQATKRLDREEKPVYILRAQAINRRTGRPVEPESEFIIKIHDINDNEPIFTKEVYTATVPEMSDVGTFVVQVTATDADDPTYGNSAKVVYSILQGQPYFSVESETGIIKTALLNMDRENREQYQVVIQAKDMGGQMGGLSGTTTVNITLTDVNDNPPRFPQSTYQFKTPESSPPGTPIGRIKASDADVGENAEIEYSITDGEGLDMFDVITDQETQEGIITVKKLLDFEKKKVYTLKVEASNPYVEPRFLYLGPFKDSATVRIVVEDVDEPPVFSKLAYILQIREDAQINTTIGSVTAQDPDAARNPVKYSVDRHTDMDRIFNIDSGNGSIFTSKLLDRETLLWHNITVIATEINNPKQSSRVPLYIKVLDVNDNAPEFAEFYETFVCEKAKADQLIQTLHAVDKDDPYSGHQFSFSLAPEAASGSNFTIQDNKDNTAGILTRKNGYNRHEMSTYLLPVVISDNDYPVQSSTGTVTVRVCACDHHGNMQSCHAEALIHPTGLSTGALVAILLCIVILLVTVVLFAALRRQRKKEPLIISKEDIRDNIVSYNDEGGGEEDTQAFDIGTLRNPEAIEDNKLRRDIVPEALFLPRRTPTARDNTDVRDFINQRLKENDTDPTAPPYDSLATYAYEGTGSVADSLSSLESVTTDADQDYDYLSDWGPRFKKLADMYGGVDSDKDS
Protocol: OVCAR3 cells with high expression of CDH6 and PA-1 cells with moderate expression of CDH6 were used to detect the binding activity of the antibodies to the cells. […] The cells were washed once with PBS, counted, resuspended to 2×10⁶ cells/mL in an FACS buffer (PBS+2% FBS), and then added to a 96-well plate at 50 μL/well. The chimeric antibodies were diluted with FACS buffer (PBS+2% FBS) and added to the 96-well plate at 50 μL/well, and the plate was incubated at 4° C. for 1 h. […] The dilution was added to the 96-well plate at 50 μL/well, and the plate was incubated at 4° C. for 1 h. After the plates were centrifuged and washed 2 times with PBS, the cells were resuspended in an FACS buffer. The mean fluorescence intensity (MFI) was measured using FACS Canton II (BD). Analysis was performed by the GraphPad Prism software, data were fitted, and EC50 values were calculated. The chimeric antibodies tested had strong binding to both OVCAR3 cells and PA-1 cells.
According to the above sequences, heavy chain (HC) and light chain (LC) plasmids were constructed (the nucleic acid sequences encoding the VH and VL of the antibodies were recombined into an expression vector carrying a signal peptide (SEQ ID NO: 132, […]) and a heavy chain constant region/light chain constant region sequence to obtain recombinant plasmids expressing VH-CH1-Fc/VL-CL). According to the expression and purification methods in Example 2, the hCDH6-14 humanized antibodies were obtained, and the binding activity of the humanized antibodies was detected by ELISA and FACS (see 2.2 and 2.3 for the method).

B1: CHI-CDH6-4 (antibody, human IgG1, kappa, V domains shown)
VH: QVQLQQSGPELVKPGASVKISCKASGYAFSNFWMNWVKQRPGKGLEWIGWIYPGDGDTNYNGKFKDKATLTADKSSSTAYIQLSSLTSEDSAVYFCARLYDAWGFFDYWGQGTTLTVSS
VL: QIVLTQSPAIMSASPGQKVTITCSASSSVNYMHWYQQKLGSSPKLWIYDKSKLAPGVPARFSGSGSGTSYSLTISSMEAEDAASYFCHQWSSYPPMTFGGGTKLEIKR
notes: also called CH1-CDH6-4; chimeric antibody of murine CDH6-4
binding result [1]: no binding

B2: CHI-CDH6-12 (antibody, human IgG1, kappa, V domains shown)
VH: EVNLVESGGGLVQPGDSLTLSCSASGFTFTDYYMSWVRQFPGKALEWLALIRNKANSYTTEYSASVKGRFTISRDNSQSILYLQMNALRAEDSATYYCARDSYYSHDGFAYWGQGTLVTVSA
VL: DIVLTQSPASLAVSLGQRATISCRASKSVSTSSYTYMHWYQQKPGQPPKLLIKFASYLESGVPARFSGSGSGTDFTLNIHPVEEEDAATYYCQHSREFPFTFGTGTKLEIKR
notes: also called CH1-CDH6-12; chimeric antibody of murine CDH6-12
binding result [2]: no binding

B3: CHI-CDH6-14 (antibody, human IgG1, kappa, V domains shown)
VH: QIQLQQSGPELVKPGTSVKISCKASGYTFTDNYINWVRQRPGQGLEWIGWIYPGTGNSYYNEKFKGKATLTVDTSSSTAYMQFSSLTSEDSAVYLCASSYGDSFDYWGQGTTLTVSS
VL: DIQMTQTTSSLSASLGNRVTISCRASQDIRNYLNWYQQKPDGTFKLLISYTSRLHSGVPSRFSGSGSGTDYSLTVSNLEPEDIATYYCQQYSQLPWTFGGGSRLEIKR
notes: also called CHI-hCDH6-14; CH1-CDH6-14
EC50 [3]: 0.27 nM
Max MFI [3]: 4260 MFI
